Data from US20250122298A1 (OSSIANIX, published 2025).

What was measured:
recombinant human TfR-1 [1] = target: T1, recombinant human TfR-1 (human, UniProt P02786 89-760, limits assumed); test: ELISA on coated hTfR1, crude ExpiHEK expression media, normalised to TXP1
T1 construct: also called hTfR-1; hTfR1
Method: FIG. 6. Expression level and hTfR1 binding of 20 single-region variants of TXP1 measured by ELISA. Variants were designed to remove potential MHCII binding motifs in each region separately with the mutations described in Table 5. Each deimmunized variant was transiently expressed in 0.5 ml scale in ExpiHEK cells and the crude media were tested by ELISA for hTfRIbinding and expression level in comparison to parental TXP1. The data were normalized to TXP1 and the variants with binding or expression >0.5-fold were evaluated further.
Mutating the primary anchoring residue in each MHCII binding motif was prioritized to minimize manipulation of the sequence with maximal reduction in binding score. Alternative positions were also considered when replacement of an anchor residue might disrupt the protein structure or where removing the anchor residue was insufficient to eliminate MHCII binding. Based on the in silico analyses, 20 single-region deimmunized variants of TXP1 (6 in region 1, 10 in region 2, and 4 in region 3) were genetically synthesized and evaluated (Table 5). Expression and hTfR1 binding were measured in crude media from transfected ExpiHEK cells (FIG. 6). […] Region 3 required all three substitutions to eliminate predicted MHCII binding, and all three mutations individually and when combined (TXP1-R3-1-4) were expressed well and retained parental levels of TfR-1 binding.

[2] = target: T2, recombinant cynomolgus TfR-1 (cynomolgus, UniProt H9EXL1 89-760 (rhesus entry)); test: SPR Biacore T200, multi-cycle kinetics, 1:1 model
T2 construct: also called cTfR-1; cTfR1
T2 sequence (chain, as listed by the source): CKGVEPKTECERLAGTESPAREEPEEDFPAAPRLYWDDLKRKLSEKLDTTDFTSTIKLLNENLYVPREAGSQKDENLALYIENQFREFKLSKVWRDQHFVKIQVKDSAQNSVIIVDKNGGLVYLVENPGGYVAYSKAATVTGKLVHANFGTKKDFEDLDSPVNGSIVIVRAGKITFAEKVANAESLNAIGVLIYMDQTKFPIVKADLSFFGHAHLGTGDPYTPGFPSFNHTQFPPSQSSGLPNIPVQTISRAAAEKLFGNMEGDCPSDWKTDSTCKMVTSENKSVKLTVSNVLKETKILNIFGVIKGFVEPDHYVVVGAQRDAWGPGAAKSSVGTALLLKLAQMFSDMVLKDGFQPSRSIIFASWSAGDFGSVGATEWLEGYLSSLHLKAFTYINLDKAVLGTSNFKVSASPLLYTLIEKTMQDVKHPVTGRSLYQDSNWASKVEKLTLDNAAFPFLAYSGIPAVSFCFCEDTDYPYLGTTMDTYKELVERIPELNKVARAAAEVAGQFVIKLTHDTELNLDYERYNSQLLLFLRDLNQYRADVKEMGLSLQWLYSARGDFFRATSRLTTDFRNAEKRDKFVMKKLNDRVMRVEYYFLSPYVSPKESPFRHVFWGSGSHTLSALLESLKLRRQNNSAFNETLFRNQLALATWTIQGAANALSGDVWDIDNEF

[3] = target: T2, recombinant cynomolgus TfR-1; test: ELISA, plate-coated recombinant cTfR1, anti-hFc HRP detection
Method: (§1) TfR1 ELISA. Nunc MaxiSorp plates were coated with 100 ul of 1 μg/ml of in-house purified recombinant human, cynomolgus TfR1 or HSA and incubated at 4° C. overnight. Plates were incubated with blocking buffer (2.5% non-fat dry milk in PBST) for 1 hr at RT. Serial dilutions of TXP1, TXPID1 or TXP1D4 were mixed with non-fat dry milk in PBST to a final concentration of 2.5% and incubated for 30 min. Blocked VNAR antibody solutions (100 μl) were transferred to the blocked plates and incubated for 1 hr. Plates were washed with PBST and incubated with anti-hFc HRP-conjugated antibody diluted 1:5,000 (Sigma) in blocking buffer for 30 min. Plates were washed and developed with SureBlue TMB substrate. Were indicated the velocity of colorimetric reaction development was measured in the kinetic mode at 370 nm and the maximum peak was used for quantitation (Vmax at 370 nm). Alternatively, the TMB reaction was stopped with 1% HCl and absorbance was measured at 450 nm (OD at 450 nm).

recombinant human TfR-1 [4] = target: T1, recombinant human TfR-1; test: ELISA, plate-coated recombinant hTfR1, anti-hFc HRP detection
Method: as §1

recombinant human TfR-1 [5] = target: T1, recombinant human TfR-1; test: SPR Biacore T200, His-tagged TfR1 captured by anti-His, multi-cycle kinetics, 1:1 model
Method: Binding kinetics. Binding kinetics of TXP1, TXP1D1 and TXP1D4 were determined by surface plasmon resonance (SPR) using a Biacore T200 (GE Healthcare). A His-capture kit (GE Healthcare) was used to immobilize anti-His antibodies on CM5 chips (as recommended by the manufacturer). His-tagged recombinant hTfR1 in 0.1% BSA in HBS-EP+ buffer (GE Healthcare) was captured at flow rate 10 μl/min. Analyte binding was measured using the multi-cycle kinetic SPR method. Starting analyte concentrations at 400 nM and serially diluted in 1:4 in seven steps. Association and dissociation were measured for 360s and 1500s respectively, with flow rate at 30 μl/min. The chips were regenerated in 10 mM Glycine-HCl, pH 1.5. Sensorgrams were fitted using 1:1 binding model and kinetic constants determined using Biacore T200 Evaluation software (Cytiva).

[6] = target: T3, cell surface human TfR1 on hCMEC/D3 and SH-SY5Y cells (human, UniProt P02786 1-760); test: flow cytometry on hCMEC/D3 cells on ice, binding to cell surface TfR1, anti-hFc Alexa647
T3 construct: whole, on cells; Endogenous receptor on the cell lines; also called cell surface TfR1; cell-surface hTfR1
T3 sequence (P02786 whole entry): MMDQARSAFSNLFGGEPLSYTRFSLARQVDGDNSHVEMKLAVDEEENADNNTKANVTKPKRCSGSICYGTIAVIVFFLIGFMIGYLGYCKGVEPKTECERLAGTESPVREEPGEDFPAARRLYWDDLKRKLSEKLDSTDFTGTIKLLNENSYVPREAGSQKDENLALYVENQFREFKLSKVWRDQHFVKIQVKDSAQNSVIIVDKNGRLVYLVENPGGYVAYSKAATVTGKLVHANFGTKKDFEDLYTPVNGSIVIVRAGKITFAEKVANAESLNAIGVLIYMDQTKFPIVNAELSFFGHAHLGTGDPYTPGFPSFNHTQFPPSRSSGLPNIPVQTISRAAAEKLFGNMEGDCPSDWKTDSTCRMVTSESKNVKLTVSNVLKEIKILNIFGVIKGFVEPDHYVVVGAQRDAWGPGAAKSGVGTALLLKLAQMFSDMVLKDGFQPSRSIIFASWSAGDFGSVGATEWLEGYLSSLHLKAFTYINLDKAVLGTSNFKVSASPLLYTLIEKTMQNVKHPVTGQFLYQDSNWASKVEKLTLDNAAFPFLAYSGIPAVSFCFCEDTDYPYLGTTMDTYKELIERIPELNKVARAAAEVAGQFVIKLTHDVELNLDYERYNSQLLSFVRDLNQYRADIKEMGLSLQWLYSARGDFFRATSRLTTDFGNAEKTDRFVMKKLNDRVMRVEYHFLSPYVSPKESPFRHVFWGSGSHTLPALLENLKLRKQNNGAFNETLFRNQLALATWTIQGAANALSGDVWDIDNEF
Method: Functional activity of the fully deimmunized variants was assessed using the hCMEC/D3 human endothelial cell line and the SY-SH5Y human neuronal cell line. Binding to hCMEC/D3 cells was assessed by incubation with serial antibody dilutions for 1h on ice to avoid internalization. The cells were fixed and binding to cell surface TfR1 was measured by flow cytometry. […] Internalization via cell-surface hTfR1 was assessed using the hCMEC/D3 and SY-SH5Y cell lines by incubation with the antibodies for 1 hour at 37° C.
Flow cytometry. hCMEC/D3 cells were seeded onto V-bottom 96-well plates at a density of 1×10⁴ cells/well. All incubations were carried out on ice to prevent internalization. After blocking in PBS containing 10% BSA (FACS buffer), cells were incubated with serial dilutions of TXP1. Cells were stained with propidium iodine (PI; Biolegend) for 20 min, followed by anti-hFc conjugated to Alexa647 diluted 1:300 (Jackson ImmunoResearch) for 30 min. After fixation in 4% PFA for 15 min, the cells were analyzed on a CytoFlex flow cytometer (Beckman Coulter). Gating of cells stained with secondary antibody alone was used to set the negative threshold for and the fluorescence intensity of approximately 1000 cells per condition was measured. EC50 values were calculated using a four parametric non-linear regression model.

T1 sequence (P02786 89-760 limits assumed): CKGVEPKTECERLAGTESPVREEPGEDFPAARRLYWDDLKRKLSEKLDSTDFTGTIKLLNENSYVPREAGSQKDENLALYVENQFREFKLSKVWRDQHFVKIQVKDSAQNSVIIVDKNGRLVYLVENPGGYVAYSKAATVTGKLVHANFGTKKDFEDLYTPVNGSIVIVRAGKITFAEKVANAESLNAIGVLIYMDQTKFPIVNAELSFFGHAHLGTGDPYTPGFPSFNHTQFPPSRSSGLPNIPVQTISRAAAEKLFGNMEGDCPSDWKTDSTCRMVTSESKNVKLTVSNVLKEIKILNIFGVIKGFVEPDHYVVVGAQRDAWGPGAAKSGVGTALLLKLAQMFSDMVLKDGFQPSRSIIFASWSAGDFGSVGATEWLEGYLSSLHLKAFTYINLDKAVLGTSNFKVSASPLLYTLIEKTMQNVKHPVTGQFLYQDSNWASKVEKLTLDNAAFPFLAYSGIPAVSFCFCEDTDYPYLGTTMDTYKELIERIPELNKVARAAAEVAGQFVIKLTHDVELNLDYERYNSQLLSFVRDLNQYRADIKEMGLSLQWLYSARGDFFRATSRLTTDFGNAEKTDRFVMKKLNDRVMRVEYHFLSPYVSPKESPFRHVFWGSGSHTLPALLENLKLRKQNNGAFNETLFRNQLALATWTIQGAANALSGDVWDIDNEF

B1: TXP1-R1-1 (Fc fusion)
chain: ARVDQTPQTATKETGESLTINCVLRDSNCALSSTYWYRKKSGSTNEENISKGGRYVETVNSGSKSFSLKINDLTVEDSGTYRCNVVGTWCMSWRDVYGGGTAVTVNA
notes: Single-region variant of TXP1; tested in crude expression media; not shown: human IgG1 Fc (hFc) with AEF mutations incl. deletion of G236 (printed AG236)
Q: For B1, which “hTfR1 binding relative to parental TXP1 (fold)” value (recombinant human TfR-1 [1]) is on record?
A: The value was 0.5 fold.

B2: TXP1-R1-2 (Fc fusion)
chain: ARVDQTPQTETKETGESLTINCVLRDSNCALSSTYWYRKKSGSTNEENISKGGRYVETVNSGSKSFSLKINDLTVEDSGTYRCNVVGTWCMSWRDVYGGGTAVTVNA
notes: as for B1
Q: B2 was tested. Which “hTfR1 binding relative to parental TXP1 (fold)” value (recombinant human TfR-1 [1]) did it give?
A: Its value is 0.5 fold.

B3: TXP1-R1-3 (Fc fusion)
chain: ARVDQTPQTSTKETGESLTINCVLRDSNCALSSTYWYRKKSGSTNEENISKGGRYVETVNSGSKSFSLKINDLTVEDSGTYRCNVVGTWCMSWRDVYGGGTAVTVNA
notes: as for B1
Q: B3 was tested. Which “hTfR1 binding relative to parental TXP1 (fold)” value (recombinant human TfR-1 [1]) did it give?
A: Its value is 0.5 fold.

B4: TXP1-R1-4 (Fc fusion)
chain: ARVDQTPQTTTKETGESLTINCVLRDSNCALSSTYWYRKKSGSTNEENISKGGRYVETVNSGSKSFSLKINDLTVEDSGTYRCNVVGTWCMSWRDVYGGGTAVTVNA
notes: as for B1
Q: How did the “hTfR1 binding relative to parental TXP1 (fold)” value (recombinant human TfR-1 [1]) turn out when B4 was run?
A: Its value is 0.5 fold.

B5: TXP1-R2-2 (Fc fusion)
chain: ARVDQTPQTITKETGESLTINCVLRDSNCALSSTYWYRKKSGSTNEENISKGGRHVETVNSGSKSFSLKINDLTVEDSGTYRCNVVGTWCMSWRDVYGGGTAVTVNA
notes: as for B1
Q: B5 was tested. Which “hTfR1 binding relative to parental TXP1 (fold)” value (recombinant human TfR-1 [1]) did it give?
A: The value was 0.5 fold.

B6: TXP1-R2-3 (Fc fusion)
chain: ARVDQTPQTITKETGESLTINCVLRDSNCALSSTYWYRKKSGSTNEENISKGGRNVETVNSGSKSFSLKINDLTVEDSGTYRCNVVGTWCMSWRDVYGGGTAVTVNA
notes: as for B1
Q: Which “hTfR1 binding relative to parental TXP1 (fold)” value (recombinant human TfR-1 [1]) does the source give for B6 here?
A: Its value is 0.5 fold.

B7: TXP1-R2-4 (Fc fusion)
chain: ARVDQTPQTITKETGESLTINCVLRDSNCALSSTYWYRKKSGSTNEENISKGGRSVETVNSGSKSFSLKINDLTVEDSGTYRCNVVGTWCMSWRDVYGGGTAVTVNA
notes: as for B1
Q: Which “hTfR1 binding relative to parental TXP1 (fold)” value (recombinant human TfR-1 [1]) does the source give for B7 here?
A: Its value is 0.5 fold.

B8: TXP1-R2-5 (Fc fusion)
chain: ARVDQTPQTITKETGESLTINCVLRDSNCALSSTYWYRKKSGSTNEENISKGGRTVETVNSGSKSFSLKINDLTVEDSGTYRCNVVGTWCMSWRDVYGGGTAVTVNA
notes: as for B1
Q: With B8 as the binder, how does the “hTfR1 binding relative to parental TXP1 (fold)” value (recombinant human TfR-1 [1]) read?
A: Its value is 0.5 fold.

B9: TXP1-R2-6 (Fc fusion)
chain: ARVDQTPQTITKETGESLTINCVLRDSNCALSSTYWYRKKSGSTNEENISKGGRYVETVDSGTKSFSLKINDLTVEDSGTYRCNVVGTWCMSWRDVYGGGTAVTVNA
notes: as for B1
Q: Which “hTfR1 binding relative to parental TXP1 (fold)” value (recombinant human TfR-1 [1]) does the source give for B9 here?
A: Its value is 0.5 fold.

B10: TXP1-R2-9 (Fc fusion)
chain: ARVDQTPQTITKETGESLTINCVLRDSNCALSSTYWYRKKSGSTNEENISKGGKYVETVESGSKSFSLKINDLTVEDSGTYRCNVVGTWCMSWRDVYGGGTAVTVNA
notes: as for B1
Q: How did the “hTfR1 binding relative to parental TXP1 (fold)” value (recombinant human TfR-1 [1]) turn out when B10 was run?
A: The value was 0.5 fold.

B11: TXP1-R2-10 (Fc fusion)
chain: ARVDQTPQTITKETGESLTINCVLRDSNCALSSTYWYRKKSGSTNEENISKGGKYVETVQSGSKSFSLKINDLTVEDSGTYRCNVVGTWCMSWRDVYGGGTAVTVNA
notes: as for B1
Q: How did the “hTfR1 binding relative to parental TXP1 (fold)” value (recombinant human TfR-1 [1]) turn out when B11 was run?
A: Its value is 0.5 fold.

B12: TXP1D1 (Fc fusion)
chain: ARVDQTPQTATKETGESLTINCVLRDSNCALSSTYWYRKKSGSTNEENISKGGRYVETVDSGTKSFSLKINDLTVEDSGTYRCNVVGTWCMSWRDVSGDGTVVTVNA
notes: Fully deimmunized variant of TXP1, VNAR-hFc format; also called TXPID1; not shown: human IgG1 Fc (hFc) with AEF mutations incl. deletion of G236 (printed AG236)
Q: How did the Kd [2] turn out when B12 was run?
A: Its Kd is 2.2 nM.

Q: What about the koff [2] of the same binder?
A: Its koff is 0.00016 s⁻¹.

Q: And the kon [2]?
A: Its kon is 73000 M⁻¹ s⁻¹.

Q: What about the EC50 [3] of the same binder?
A: The EC50 was 2.2 nM.

Q: And the EC50 (recombinant human TfR-1 [4])?
A: Its EC50 is 3.5 nM.

Q: And the Kd (recombinant human TfR-1 [5])?
A: Its Kd is 4.6 nM.

Q: And the koff (recombinant human TfR-1 [5])?
A: The koff was 0.00031 s⁻¹.

Q: What about the kon (recombinant human TfR-1 [5]) of the same binder?
A: The kon was 67000 M⁻¹ s⁻¹.

Q: And the EC50 [6]?
A: The EC50 was 1.6 nM.

B13: TXP1D4 (Fc fusion)
chain: ARVDQTPQTATKETGESLTINCVLRDSNCALSSTYWYRKKSGSTNEENISKGGKYVETVESGSKSFSLKINDLTVEDSGTYRCNVVGTWCMSWRDVSGDGTVVTVNA
notes: Fully deimmunized variant of TXP1, VNAR-hFc format; also called TXPID4; not shown: human IgG1 Fc (hFc) with AEF mutations incl. deletion of G236 (printed AG236)
Q: B13 was tested. Which Kd [2] did it give?
A: Its Kd is 1.7 nM.

Q: What about the koff [2] of the same binder?
A: Its koff is 0.00014 s⁻¹.

Q: And the kon [2]?
A: The kon was 87000 M⁻¹ s⁻¹.

Q: And the EC50 [3]?
A: Its EC50 is 3 nM.

Q: And the EC50 (recombinant human TfR-1 [4])?
A: The EC50 was 4.1 nM.

Q: What about the Kd (recombinant human TfR-1 [5]) of the same binder?
A: Its Kd is 3 nM.

Q: What about the koff (recombinant human TfR-1 [5]) of the same binder?
A: Its koff is 0.00026 s⁻¹.

Q: And the kon (recombinant human TfR-1 [5])?
A: Its kon is 87000 M⁻¹ s⁻¹.

Q: And the EC50 [6]?
A: Its EC50 is 2.1 nM.
